Source: patent publication US8563503B2, “Antibiotic, its nucleotide sequence, methods of construction and uses thereof” (Protein Design Lab. Ltd., priority 2011, dated 2013)
“Also recorded” adds a separate entry of the source.

Experiments:
Enterococcus = experiment: MIC by Agar Doubling Dilution Method, clinical isolates; assay type: cell-based, Enterococcus faecalis; conditions: Enterococcus clinical strains
Procedure, shortened: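 Agar doubling dilution on Mueller-Hinton agar plates holding serial drug concentrations; inocula of 10^5 CFU/ml per spot applied by multipoint inoculator. Enterococcus grown in MH medium with 5-10% defibrinated rabbit blood at 37° C, 5% CO2. Plates read after 18-24 h at 37° C; MIC = lowest concentration with no growth.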

[1] = system: methicillin-resistant Staphylococcus aureus (ATCC BAA-42); experiment: Transmission electron microscope observation of bactericidal effect; assay type: cell-based
Protocol: Transmission Electron Microscope Observations of the Bactericidal Effect of the Novel Antibiotic PMC-SA1 on Methicillin-Resistant Staphylococcus aureus (ATCC BAA-42) (Dyed by 1% Phospho-Wolframic Acid, Magnified by 25,000 Fold)
Culture solution: 1% tryptone, 1% NaCl, 0.5% yeast extract, 0.5% glucose, 0.1% K2HPO4.
Con: control group, the bacterium was added to the above culture solution and proper amount of 0.3 M NaCl+50 mM boric acid buffer solution, 200 rpm, grew at 37° C. for 2 hours, and the bacterial appearance was still regular;
PMC: the bacterium was added to the above culture solution with 10 μg/ml PMC-SA1 for 0.5 hours.

[2] = system: ATCC 25923 penicillin-sensitive Staphylococcus aureus; experiment: Bacteria growth curve (A595 nm cloudiness), penicillin-sensitive Staphylococcus aureus; assay type: cell-based; conditions: drug 100 ng/ml, 37° C., A595 nm per hour
Protocol: The bacterium was United States Reference Culture ATCC 25923 penicillin-sensitive Staphylococcus aureus. 2 microliter of bacteria solution (10^5 CFU/ml) was added into 10 ml culture solution containing 1% tryptone, 1% NaCl, 0.5% yeast extract, 0.5% glucose and 0.1% K2HPO4, totally prepared six groups. The first group as control was added 0.3 M NaCl+50 mM boric acid buffer fluid (i.e. blank preservative fluid for novel antibiotic, wild-type colicin Ia and protein produced by BL-21 engineering bacteria without plasmid, by the same volumes of antibiosis polypeptide liquid in the experimental group, the second group was added penicillin G sodium by 100 ng/ml, the third group was added wild-type colicin Ia by 100 ng/ml, the fourth group was added protein produced by BL-21 engineering bacteria without plasmid by 100 ng/ml, the fifth group was added recombinant protein that C-terminus of colicin Ia is fused other eight peptides by 100 ng/ml, and the sixth group was added the novel antibiotic PMC-SA1 by 100 ng/ml.
The solutions of the six groups were respectively put into 100 ml conical flask, 200 rpm, grew at 37° C. 100 μl was sampled per hour, and added onto 96 hole ELISA Plate and measured bacterium growth cloudiness by spectrophotometer (A595 nm) color comparison. The bacteria-growth curve was drawn up to compare the bacteriostasis efficacy of novel antibiosis.

Enterococcus ATCC 700802 = experiment: Protection test in vivo (intravenous injection) of infected mice; set-up: species or system Kungming mice; conditions: mice, infected with 7.0 × 10^6 cfu/ml i.p., drug once intravenous
Procedure, shortened: (§1)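 Mice got a lethal intraperitoneal bacterial challenge, then one intravenous dose of drug in sterile water at 10, 5 or 2.5 mg/kg. Survival was checked every 24 h for 7–14 days, with death counted as the positive result.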

[3] = system: Staphylococcus aureus ATCC 29213; experiment: as above; set-up: species or system Kungming mice; conditions: mice, infected with 4.6 × 10^5 cfu/ml i.p., drug once intravenous
Procedure, shortened: as §1

E. coli 02-1-65 = experiment: as above; set-up: species or system Kungming mice; conditions: mice, infected with 3.8 × 10^5 cfu/ml i.p., drug once intravenous
Procedure, shortened: as §1

[4] = system: Staphylococcus aureus MRSA BAA-42; experiment: as above; set-up: species or system Kungming mice
Procedure, shortened: as §1

[5] = system: Pseudomonas aeruginosa Standard Strain (ATCC 27853); experiment: Bacteria growth curve (A595 nm cloudiness), Pseudomonas aeruginosa; assay type: cell-based; conditions: drug 5 μg/ml, 37° C., A595 nm per hour
Protocol: The experimental bacterium was Pseudomonas aeruginosa Standard Strain (ATCC 27853) purchased from the Center for General Microorganism of the Administration (CGMCC). 5 microliter bacteria solution (10^6 CFU/ml level bacterium amount) was added into 10 ml MH culture solution. Seven groups are prepared. 0.3 M NaCl+50 mM boric acid buffer fluid which amount was identical to amount of antibiosis polypeptide liquid in the experimental group was added as control in the first group, 5 μg/ml wild-type colicin Ia was added in the second group, 5 μg/ml PMC-SA1 was added in the third group, and 5 μg/ml PMC-PA was added in the fourth group.
Liquid in the above groups was put into 100 ml conical flask, 200 rpm, grew at 37° C. 100 μl was sampled per hour, and added onto 96-hole Elisa Plate to measure bacteria grown cloudiness by spectrophotometer (A595 nm) color comparison. The bacteria growth curve was drawn up to compare the bacteriostasis efficacy of antibiosis polypeptide.

B1: PMC-SA1: Staphylococcus aureus pheromone AgrD I linked to C-terminus of allosteric colicin Ia′; SEQ ID NO. 13; plasmid pBHC-SA1 (protein)
chain: SDPVRITNPAAESLGYDSDGREIMGVDIYLNPPRVDVFKGTPPAWSSFGNKTIWGGNEWVDDSPTRSDIEKRDKEITAYKNTLSAQQKENENKRTEAGKRLSAAIAAREKDENTLKTLRAGNADAADITRQEFRLLQAELREYGFRTEIAGYDALRLHTESRMLFADADSLRISPREARSLIEQAEKRQKDAQNADKKAADMLAEYERRKGILDTRLSELEKNGGAALAVLDAQQARLLGQQTRNDRAISEARNKLSSVTESLNTARNALTRAEQQLTQQKNTPDGKTIVSPEKFPGRSSTNHSIVVSGDPRFAGTIKITTSAVIDNRANLNYLLSHSGLDYKRNILNDRNPVVTEDVEGDKKIYNAEVAEWDKLRQRLLDARNKITSAESAVNSARNNLSARTNEQKHANDALNALLKEKENIRNQLSGINQKIAEEKRKQDELKATKDAINFTTEFLKSVSEKYGAKAEQLAREMAGQAKGKKIRNVEEALKTYEKYRADINKKINAKDRAAIAAALESVKLSDISSNLNRFSRGLGYAGKFTSLADWITEFGKAVRTENWRPLFVKTETIIAGNAATALVALVFSILTGSALGIIGYGLLMAVTGALIDESLVEKANKFWGIYSTCDFIM
modifications: The peptide of PMC-SA1
notes: Staphylococcus aureus pheromone AgrD I linked to C-terminus of allosteric colicin Ia′; 13; plasmid pBHC-SA1
MIC50 (Enterococcus): >64 µg/mL | MIC90 (Enterococcus): >64 µg/mL | antibiosis effect relative to oxacillin (by molecular weight and concentration) ([1]; 10 μg/ml PMC-SA1 vs 500 μg/ml oxacillin): about eight thousand | bactericidal effect, bacterial appearance under transmission electron microscope ([1]; PMC-SA1 10 μg/ml, 0.5 hours): bacterium were ruptured, the contents were leaked out; also recorded: the bacterium ruptured and leaked out its contents; also recorded: could kill methicillin-resistant Staphylococcus aureus effectively | growth of penicillin-sensitive Staphylococcus aureus (bacteria-growth curve) [2]: restrained | ED50 (Enterococcus ATCC 700802): 18.2 mg/kg | ED50 [3]: 10.35 mg/kg | ED50 (E. coli 02-1-65): 3.78 mg/kg | ED50 ([4]; mice, infected with 6.5 × 10^5 cfu/ml i.p., drug once intravenous): 4.12 mg/kg | treatment effects on methicillin-resistant Staphylococcus aureus infection in vivo compared with vancomycin ([4]; survival rate of mice, three dosage groups): far better treatment effects | growth of Pseudomonas aeruginosa (bacteria growth curve) [5]: can not be effectively restrained
